# Measurements reported in a protein production outcome set (Wang et al. 2014).
# Experiment: label from the status in PepcDB records
row,Sequence,protein production
1,MMNLPKNIQQPLSLIYLDANATTQVLPQAASAALSTMETLFGNPSSSHISGLQAKQIVDKTRQQAKRIVGAAEGKIIFTSGATEGIQTAILSALVNVKKTLNKSLNNKSYSLLYGATEHKAVPESLKHWNKILEINAEIKAIPVDEKGQLDMAFIAKEVPNALMVCTMAVNNETGVYQDISLLDQTIRTNNPNVAWMVDCVQALGKTDLVLAQTSIDYAPFSGHKLYAPKGIGFMYVKEKAPFTAFIAGGGQESGLRSGTENLPGLAALSEIFSMLLGESEASFTPIKTLHLYRQQLVSALTQAFPEITFNHSFENSVATTLNFAIPGFSSKEIMDLFDAANIRVSSGSACSSKVTRSFVLDAMGLPAWQSESAIRMSFGPAMTQTEIDIACSRIVSAAQALVQSCLTLDKKNIDTQTMNTSSTTNKTELDGLVQFKAGGSCSWLYVDKKTRSAVFIDPLSEVSERLQTLLTCRGLNLVAVIDTHGHADHKSCRNGIAKKFLAEQQTEYLGWPAGAQTTTIHGQTFQYLILGDKWLIKVATPGHTDDSMSLLLCDPVTDSAEKLQVHYAFCGDLILMDSIGRSNFSTSSAPAMYSSLKLMKSLIGNNSLICPSHDYHNEFTTCLETEMKRNSLLRQVINSEIDIEEFTSKKIKMDKDIINESGSEIMCGALIGACQKVVVREYDSASLTKAVKKSSDMKLIDIREPHEYALQHDEKFTSNVPLTRLVQFVKEQQQNKEQEFVLVCRSGGRSQLAAQALARLGFENVGHLKGGYALHQY,failed
2,MMNRVILVGRLTKDPDLRYTPNGVAVATFTLAVNRAFANQQGEREADFINCVIWRKQAENVANYLKKGSLAGVDGRLQTRNYEGQDGKRVYVTEVLAESVQFLEPRNGGGEQRGSFNQQPSGAGFGNQSSNPFGQSSNSGNQGNQGNSGFTKNDDPFSNVGQPIDISDDDLPF,failed
3,MMPPNQPLATYLDDAPSHGGMMRERRYYRAYGLTVASDVALPELEPTEPAAADILIAIGTIDMPKPSSEAATIFRFEPDRQYLAWHAVGAFLISDADRIDIEPAPGVDDALLAFPLLGPVMALLLHQRGLLVLHASAIAAAGKGAIFMGDKGAGKSTTASALIRAGHELLTDDVVALDLARPDAPMIVAGFPQIKLAADAAAAISLGRAEVRPQVHPAIEKMQHRLHGAFSGGMVPATRIYVLERGAKAAITALPGIAALPAIIKFSYVTRFGRAALSGDFAALHLRQCSAIANHVGVFRLEVPTGLDRIGEAVALVESDLAAGDLAAGRRRR,failed
4,MMQSITTFMAALGKYDFLQSALITAIMVGVMSGIIGSFIILRGMSMMGDAISHAVLPGVAVAYMLGINVLIGASVFGILAASLIGFVASRSKIKTDTSIGIVFSAFYALGFILISLAESSTNLHHILFGNILAVSDTDMMTTTVVLGLVILFVAFFYKELLITSFDPTFAKTYGLKVQLLHYALMLVLTLVTVSALQTVGIILVVAMLITPAATAFLWTERLAVMLGLSALIGVLSSVVGLYLSYTLNWASGPAIVLVAAIFFGISFIISPKQALLPTLWKGQAAARRVTA,failed
5,MMRLLGILFILLSSSFNVYAQLPQVSAGSIERLTSFPSAFVPPRNIDIWLPAGYDKQQRYAVLYMHDGQMLFDATTSWNKQEWQIDEVASRLIKAGKTQPFIVVGIDNAGENRHSEYFPQQPFENLSQAQQTALYQLQRTKNQALFSQQVYSDRYLKFLVTELKPYIDSHYSVYTDAAHTFVMGSSMGGLISLYAISEYPHIFGGAACLSTHWPGTFEQQNNPIPPAFFNYMQQKLPDPSTHKLYFDHGTATLDAWYPQLQAKADKIIEAKGYTSQNWQSLIFEGAEHSEHAWAARLDIPLIFLLA,failed
6,MMRQPRARTMTMRDDIRDLPANDDRMTRFLGGSPMAVAFRLILMSILVGVVLAAIGLDPWNIITSIRLLFERIWDLGFDAINGLWRYFLLGAVIVIPIWLLTRLASTPRGR,failed
7,MMRTGFQGVARLVHHKALYRSPQTLPRLHLASAFGSSTDSLVARFCGEKTDLKDYALPNASWCPDMLSLYQEFLEKTKSGSWVKLPSFKSNRDHIRGLKLPFGLVAASDKQDWRLFTRSIQLEGQGYEYVIFFHPSEKKSVCLFQPGPYLEGAPGFAHGGSLAALMDETYSKTAYLAGEGLFTLSFNIKFKNLIPVGSLAVLDLQVEKIEDQKLYMSCIAQSRDKQTVYAKSSGVFLQLQLEEEQSGEQ,failed
8,MMSAVPVSLPVKMLVTRHISPDRYGDFLAWMRQGEILAAGFPGFLGSGVLQPPEGGDQYQIVLRFDSEASLARWEQSLPRRMWLERGAALVRASHARRVTGMDSWFGAPAGAPPRWKQAVSIWLVYFPMLLLFSTALDAQLNALPLFWRVLATTLCMTPVLSFLCIPLVTRVLRGWLHPRAVGAAD,failed
9,MMSNLCKYGPPPDSDSDSSYDGFYFSDKVKRSKPAPYVDPEQKLYDAVVAGDLKTMQEEMRKLVLQVDQPVKGGLNLLMLACREGHYKIVEWLLERAGANVNRQLDSLMPLMMACNTTHKDPCLAERIVGLLLRHGAVINVSEKYGMTPFMFACQNGFAGVVRLLIKDASFDAVDNQGCTAIFHAIEKNHVEVVKLLVEAGANATIANNKGYTPTQVAECHGYYDLLEILPRPASTYLVPTHFLGYNTLRDHIPRIFLKSDCPEYFQELNGILEAINIGNMVQYFAIARISLADFLVMDEQSLREIGIEYPIFRHKILTGILDFHLHHWSNSSIARVKKDEMNNFYEILLITASHLQHLVIIQASLRFILKNQEHNKMGQPSEMQVAAMKSNLQGYRDVLNQITKTVKYLGSFSPSQNPLFIDFNEILAERKRKKVRSYFKYTTIILGISVFICLKCKWFS,failed
10,MMSQSERPDVAEIRVPFRDVDMNGQMFLASYISYAESVLASFWSSRPDVDDEPVYSPSKVSCFLHRPLHYDEPATFTATIDKIGVRSIGFLISIDTGEERAAEVEIIWQAHAPEDQSPASLPEETRDWLYRFLN,failed
11,MMSTTLNTRQATTADIPFLARIEYEASLPPLNHCFWDDLLDGTGTTALQFIEAELKADACNWGNVPDFLILEAGGQPVAAAAGYVPGTDDYCPLCLSQLGAIAKELNWGEETLEGFREHYVGLWGGNLRPLFLTPQATWIIENVAVLPEARGQGFGKALLRALLAKGRSQGHEFAGIMVINGNDRARHTYESVGFKPYQTFYKDYFWEQFKIDFPGVTKFGMRLN,failed
12,MMSYDAETGIAKVKCQSQSTCGACSARETCGTESLSELNGKRGEHIFTLETITPLRTDQMVEIGLEEKSMLFSALLMYIVQLFTLLVATLLSSYISENELIRAILIFMLTALSFVMVKRYTRKLGQQTEFQSVLLRVLF,failed
13,MMTALATVTGVERHGKQYEIDLSCEQQTSCSSCSSQKSCGTGVVTKAIGNKSLSWHLRTEKNVQVGQVVEIGFPESSLIKS,failed
14,MMTFNLREQQKRLQARMDELRAEIAFAQKGEKPWPYRSCLMREGRGYCEKHGEYHTHILVWSDRNGEDREEISCCPDCLIAEANDLTMELSSIKAEELTDNAGIALRFRDCEFDNYLEVNPGAARNLAACRRYAENWPDMLENGTSLVMTGSCGTGKNHLAVAMAKHIIRNYLASVEITDVMRLTRAVKNCWRNDSEKTADEVIERYASMDLLIIDEVGVQFGSAAEMAILQEIINARYESILPTILISNLSPEELWAFISPRIADRITDGGRNWLSFNWPSYRSRIRGVAALEHHHHHH,failed
15,MMTKYGVVGTGYFGAELARFMSKVEGAKITAIYDPVNAAPIAKELNCVATATMEALCSHPDVDCVIIASPNYLHKAPVIAAAKAGKHVFCEKPIALNYQDCKDMVDACKEAGVTFMAGHVMNFFHGVRHAKALIKAGEIGEVTQVHTKRNGFEDVQDEISWKKIRAKSGGHLYHHIHELDCTLFIMDETPSLVSMAAGNVAHKGEKFGDEDDVVLITLEFESGRFATLQWGSSFHYPEHYVLIEGTTGAILIDMQNTAGYLIKAGKKTHFLVHESQAEDDDRRNGNISSEMDGAIAYGKPGKRTPMWLSSIMKLEMQYLHDVINGLEPGEEFAKLLTGEALEHHHHHH,failed
16,MMTLVILLLFLLFCVLVFWISITFSIKYVLIFTAFLFSGLLVYYSFLTLAGLVHRSRKQKDRTLEHYPSVDILIPAHNEGVVIKDTLEAMAKIEYPGKLTVYLLNDNSQDETPEIGDDFDKAYAHIRHIRVPPGEPKGKSRVLNYGLSISDGEYFCVYDADNQPEPHALRMLVEHAETTEDAVGAVGHVRTVNEKRNWLTRMISLEFQIFQLLMQSGRWLLFQTGSLTGTNMLLRRAALEELGGYDPYAIAEDAELTLRITQKGYLLPIVPESITWEQEPEHLKILIKQRTRWLQGNLYILEKMFSSLSFFKGKLLVHSLQQVLVYVVFWLFLIISNVWFVIGLLGIFQIQYSIPLLFMWYVAYVTYVSQLFSAQSVERTFTPTNIFISVIMYFTYAQLFTYLFIRSLILYLRAKSKKQVIGWDKTVRFKKDK,failed
17,MMTQPMPGKPAEDAENELDIRGLFRTLWAGKLWIIGMGLAFALIALAYTFFARQEWSSTAITDRPTVNMLGGYYSQQQFLRNLDVRSNMASADQPSVMDEAYKEFVMQLASWDTRREFWLQTDYYKQRMVGNSKADAALLDEMINNIQFIPGDFTRAVNDSVKLIAETAPDANNLLRQYVAFASQRAASHLNDELKGAWAARTIQMKAQVKRQEEVAKAIYDRRMNSIEQALKIAEQHNISRSATDVPAEELPDSEMFLLGRPMLQARLENLQAVGPAFDLDYDQNRAMLNTLNVGPTLDPRFQTYRYLRTPEEPVKRDSPRRAFLMIMWGIVGGLIGAGVALTRRCSK,not failed
18,MMTTNTEYAPYRLELVNITKRYGGLVANDHISLKVAAGEIHAVLGENGAGKSTLMKIIYGAVKADEGEIVWNGRSVTVDSPAAARRLGIGMVYQHFSLFETLTVVENIALGLEEKFDLAHLAQRVVEVSEKYGLPIDPQRMVHSLSVGERQRVEIVRCLLQNPSLLILDEPTSVLTPQAVQVLFQTLRRLASEGVSILYISHKLNEIQSLCDTATILRGGQVTGTAIPKQETTASLAKMMIGRDLPAYQQHAYEGVQQPIFQVKQLSIPAQDMFGTSLKEINLSVNTGEILGIAGISGNGQAELLTALSGETTSLKESFWLDGQAIGHLHAGQRRKLGFGFVPEERLGRGAVPAMSLTENTLLTAFRMGMTRWGLVNYAKASAFAQACISKFGVKASGSDAAARSLSGGNLQKFIVGREIMQQPKVMVVAQPTWGVDVGASAFIRQTLIDLSRQGVAIVVISEELEELFEISDRIAVLAAGQLSPPQPVNETNAEQIGLLMSGLQRDSQPQEDVIRVSI,failed
19,MMVISEKVRKALNDQLNREIYSSYLYLSMATYFDAEGFKGFAHWMKKQAQEELTHAMKFYEYIYERGGRVELEAIEKPPSNWNGIKDAFEAALKHEEFVTQSIYNILELASEEKDHATVSFLKWFVDEQVEEEDQVREILDLLEKANGQMSVIFQLDRYLGQRE,not failed
20,MMVPDVSNFAVILTTSGAILLIAYLTAISARDVIRLLISLELMFAAVFLAIVPLFSINPPMAYAVAIITAFTSSTELMVLVTAIILLDRRKRGIDVDKVAVGGDSL,failed
21,MMWIPYNQGFHAGPKCLTVVFIYLLNMKVLRHIYRFLMELYGPQGWWPLLDRDTMTLRYHPGDYTPPSDDGDVFEVITGSILTQNTSWDSAASALRNLAAMDALKPHRILSLDDAELEAAIRCAGFYRQKVSYLREMAGFFISLEGSTPSRKELLKVRGVGPETADSVLLYAYRKPEFVVDAYTRRILTHLGLIAGDESYHRIKELFERSLEPDFRVFQEYHALIVRHGKSYYRGRVHGDGDPLEHHHHHH,failed
22,MMWNLIKNEFIKLRYKRKYIICTIVFALICIGFCAVYVKMQKASTPDAAIQYYKDAKSSLQSKEKNIKDATLKQQYDQQISQLDEQIKQYQQSKNQGNSNWKKQLKNTIDSLKDEKNQAADITENTAKESYNKQIVFYQYLLNHNIKPQDNNSLSTFQLLQSLLKLIGYILIPIIIAIFSADIVSGEYTPPTIKVLLSKPASRAKILASKFIASAISCIAIILLIELITYLITGIAYGFDNPSYPVLVGTKYMNSGIKLTQDSTGLIPILGSSYVIPLWQFLIEMFLFQILFIIGCCSFFLLLSVVLRSSVLSMTLSIMIVIALNIISQISALHVIMPFLFTNYGSPYDILTNSIPSTSGLTFTTAIFGVIYLIIFTILCYGIANYSFKKKDMTV,failed
